This assay addresses RBPJκ in Raji cell extract (human (endogenous in Raji)) (UniProt Q06330). The assay can be described thus: native gel or EMSA. A general note: In EMSA bound probe runs differently from free probe, usually more slowly.
Sequence of UniProt Q06330 (Q06330 whole entry): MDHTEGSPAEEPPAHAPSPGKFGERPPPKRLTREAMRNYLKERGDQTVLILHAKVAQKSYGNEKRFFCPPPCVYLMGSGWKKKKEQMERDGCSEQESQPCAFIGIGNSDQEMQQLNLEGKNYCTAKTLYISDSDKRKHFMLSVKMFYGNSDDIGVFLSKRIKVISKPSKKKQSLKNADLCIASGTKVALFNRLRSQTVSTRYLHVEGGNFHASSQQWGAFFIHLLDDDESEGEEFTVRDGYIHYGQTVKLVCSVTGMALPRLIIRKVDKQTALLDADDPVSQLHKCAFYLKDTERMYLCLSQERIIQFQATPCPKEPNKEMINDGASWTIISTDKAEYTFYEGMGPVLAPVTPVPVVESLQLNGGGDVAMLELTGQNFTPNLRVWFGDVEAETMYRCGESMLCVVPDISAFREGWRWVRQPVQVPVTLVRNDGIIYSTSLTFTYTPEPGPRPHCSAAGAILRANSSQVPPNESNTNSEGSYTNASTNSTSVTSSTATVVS

On to “EBNA2 in Raji cell extract (from UniProt P12978 1-487) (natural protein)”, for which the decrease in EMSA signal intensity, AdOx-treated against untreated extract lay in the range of 30 to 67%.
